Assay results reported in patent US20190263918A1 (SHANGHAI JIAO TONG UNIVERSITY SCHOOL OF MEDICINE, published 2019).

T1: murine DR5 on MC38 cells (murine, UniProt Q9QZM4 53-381)
T1 construct: whole, on cells; also called mDR5
T1 sequence (looked up): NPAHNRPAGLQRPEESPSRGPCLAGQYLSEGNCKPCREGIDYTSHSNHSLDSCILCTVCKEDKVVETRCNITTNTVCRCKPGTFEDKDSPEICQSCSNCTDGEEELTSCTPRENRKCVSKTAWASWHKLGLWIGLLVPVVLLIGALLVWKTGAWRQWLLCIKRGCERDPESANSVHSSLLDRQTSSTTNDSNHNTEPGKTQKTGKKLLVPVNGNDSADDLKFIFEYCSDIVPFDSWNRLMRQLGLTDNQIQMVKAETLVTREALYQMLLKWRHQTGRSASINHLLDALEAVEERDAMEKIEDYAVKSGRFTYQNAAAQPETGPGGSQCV

T2: human FcγRIIA-R131 extracellular domain protein (human, UniProt P12318 34-217)
T2 construct: extracellular domain; SPR: His-tagged, immobilised; ELISA: biotinylated; also called hFcγRIIA-R131; CD32a
T2 sequence (looked up): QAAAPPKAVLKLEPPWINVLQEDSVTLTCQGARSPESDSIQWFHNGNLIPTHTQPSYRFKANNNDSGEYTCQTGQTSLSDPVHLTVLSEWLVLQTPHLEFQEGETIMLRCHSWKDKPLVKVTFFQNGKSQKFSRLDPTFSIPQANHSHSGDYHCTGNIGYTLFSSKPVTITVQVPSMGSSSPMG

T3: recombinant murine CD40 protein (murine, UniProt P27512 24-193, limits assumed)
T3 construct: Bought; coated on the ELISA plate; also called mouse CD40; mCD40
T3 sequence (looked up): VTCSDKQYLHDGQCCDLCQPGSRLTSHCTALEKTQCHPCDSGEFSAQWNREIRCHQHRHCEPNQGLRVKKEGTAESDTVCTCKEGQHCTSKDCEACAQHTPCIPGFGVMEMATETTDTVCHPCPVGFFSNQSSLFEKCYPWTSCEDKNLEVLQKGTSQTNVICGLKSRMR


target: T1, murine DR5 on MC38 cells; assay: flow cytometry on MC38 cells, FITC goat anti-human antibody
Procedure: To detect the DR5 binding capacity of different anti-DR5 antibodies, MC38 cells were resuspended in ice-cold FACS buffer (PBS+0.5% FBS+2 mM EDTA+0.1% NaN3), to which 3.16-fold gradient dilutions of control and anti-DR5 antibody at concentrations ranging from 2 ng to 20 µg/mL were added, and the reaction was incubated at room temperature for 15 minutes. The system was washed twice with ice-cold FACS buffer, then flow-cytometry stained using FITC-labeled goat anti-human antibody (VECTOR FI-3080) on ice for 25 minutes in dark, which was then washed twice with FACS buffer and analyzed by flow-cytometry. For the antibodies, the DR5 binding capacity was positively correlated to FITC mean fluorescence intensity (MFI).

| binding result | Binder |
| --- | --- |
| binds | Anti-mDR5-hIgG2 (antibody, Chimeric anti-murine DR5 antibody, heavy chain constant region G2; also called Anti-mDR5-IgG2) heavy: QIQLQESGPGLVKPAQSLSLTCSITGFPITAGGYWWTWIRQFPGQKLEWMGYIYSSGSTNYNPSIKSRISITRDTAKNQFFLQLNSVTTEEDTAIYYCARAGTSYSGFFDSWGQGTLVTVSSASTKGPSVFPLAPCSRSTSESTAALGCLVKDYFPEPVTVSWNSGALTSGVHTFPAVLQSSGLYSLSSVVTVPSSNFGTQTYTCNVDHKPSNTKVDKTVERKCCVECPPCPAPPVAGPSVFLFPPKPKDTLMISRTPEVTCVVVDVSHEDPEVQFNWYVDGVEVHNAKTKPREEQFNSTFRVVSVLTVVHQDWLNGKEYKCKVSNKGLPAPIEKTISKTKGQPREPQVYTLPPSREEMTKNQVSLTCLVKGFYPSDIAVEWESNGQPENNYKTTPPMLDSDGSFFLYSKLTVDKSRWQQGNVFSCSVMHEALHNHYTQKSLSLSPGK light: DIQVTQSPSLLSASFGDKVTINCLVTQDITYYLSWYQQKSGQPPTLLIYNGNSLQSGVPSRFSGQYSGRTFTLSLSSLEPEDAGTYYCLQHYSVPFTFGGGTRLEIKRTVAAPSVFIFPPSDEQLKSGTASVVCLLNNFYPREAKVQWKVDNALQSGNSQESVTEQDSKDSTYSLSSTLTLSKADYEKHKVYACEVTHQGLSSPVTKSFNRGEC |
| binds | Anti-mDR5-hIgG1(V11) (antibody, Chimeric anti-murine DR5 antibody, heavy chain constant region V11(H1)) heavy: QIQLQESGPGLVKPAQSLSLTCSITGFPITAGGYWWTWIRQFPGQKLEWMGYIYSSGSTNYNPSIKSRISITRDTAKNQFFLQLNSVTTEEDTAIYYCARAGTSYSGFFDSWGQGTLVTVSSATTKGPSVFPLAPSSKSTSGGTAALGCLVKDYFPEPVTVSWNSGALTSGVHTFPAVLQSSGLYSLSSVVTVPSSSLGTQTYICNVNHKPSNTKVDKRVEPKSCDKTHTCPPCPAPELLGDDSVFLFPPKPKDTLMISRTPEVTCVVVDVSDEDGEVKFNWYVDGVEVHNAKTKPREEQYNSTYRVVSVLTVLHQDWLNGKEYKCKVSNKALPRPIEKTISKAKGQPREPQVYTLPPSRDELTKNQVSLTCLVKGFYPSDIAVEWESNGQPENNYKTTPPVLDSDGSFFLYSKLTVDKSRWQQGNVFSCSVMHEALHNHYTQKSLSLSPGK light: DIQVTQSPSLLSASFGDKVTINCLVTQDITYYLSWYQQKSGQPPTLLIYNGNSLQSGVPSRFSGQYSGRTFTLSLSSLEPEDAGTYYCLQHYSVPFTFGGGTRLEIKRTVAAPSVFIFPPSDEQLKSGTASVVCLLNNFYPREAKVQWKVDNALQSGNSQESVTEQDSKDSTYSLSSTLTLSKADYEKHKVYACEVTHQGLSSPVTKSFNRGEC |
| binds | Anti-mDR5-IgG2(V11) (antibody, Chimeric anti-murine DR5 antibody, heavy chain constant region V11(H2), i.e. JAC1) heavy: QIQLQESGPGLVKPAQSLSLTCSITGFPITAGGYWWTWIRQFPGQKLEWMGYIYSSGSTNYNPSIKSRISITRDTAKNQFFLQLNSVTTEEDTAIYYCARAGTSYSGFFDSWGQGTLVTVSSASTKGPSVFPLAPCSRSTSESTAALGCLVKDYFPEPVTVSWNSGALTSGVHTFPAVLQSSGLYSLSSVVTVPSSNFGTQTYTCNVDHKPSNTKVDKTVERKCCVECPPCPAPELLGDDSVFLFPPKPKDTLMISRTPEVTCVVVDVSDEDGEVKFNWYVDGVEVHNAKTKPREEQYNSTYRVVSVLTVLHQDWLNGKEYKCKVSNKALPRPIEKTISKAKGQPREPQVYTLPPSRDELTKNQVSLTCLVKGFYPSDIAVEWESNGQPENNYKTTPPVLDSDGSFFLYSKLTVDKSRWQQGNVFSCSVMHEALHNHYTQKSLSLSPGK light: DIQVTQSPSLLSASFGDKVTINCLVTQDITYYLSWYQQKSGQPPTLLIYNGNSLQSGVPSRFSGQYSGRTFTLSLSSLEPEDAGTYYCLQHYSVPFTFGGGTRLEIKRTVAAPSVFIFPPSDEQLKSGTASVVCLLNNFYPREAKVQWKVDNALQSGNSQESVTEQDSKDSTYSLSSTLTLSKADYEKHKVYACEVTHQGLSSPVTKSFNRGEC |
| binds | Anti-mDR5-hIgG1-GASDALIE (antibody) heavy: QIQLQESGPGLVKPAQSLSLTCSITGFPITAGGYWWTWIRQFPGQKLEWMGYIYSSGSTNYNPSIKSRISITRDTAKNQFFLQLNSVTTEEDTAIYYCARAGTSYSGFFDSWGQGTLVTVSSATTKGPSVFPLAPSSKSTSGGTAALGCLVKDYFPEPVTVSWNSGALTSGVHTFPAVLQSSGLYSLSSVVTVPSSSLGTQTYICNVNHKPSNTKVDKRVEPKSCDKTHTCPPCPAPELLAGPDVFLFPPKPKDTLMISRTPEVTCVVVDVSHEDPEVKFNWYVDGVEVHNAKTKPREEQYNSTYRVVSVLTVLHQDWLNGKEYKCKVSNKALPLPEEKTISKAKGQPREPQVYTLPPSRDELTKNQVSLTCLVKGFYPSDIAVEWESNGQPENNYKTTPPVLDSDGSFFLYSKLTVDKSRWQQGNVFSCSVMHEALHNHYTQKSLSLSPGK light: DIQVTQSPSLLSASFGDKVTINCLVTQDITYYLSWYQQKSGQPPTLLIYNGNSLQSGVPSRFSGQYSGRTFTLSLSSLEPEDAGTYYCLQHYSVPFTFGGGTRLEIKRTVAAPSVFIFPPSDEQLKSGTASVVCLLNNFYPREAKVQWKVDNALQSGNSQESVTEQDSKDSTYSLSSTLTLSKADYEKHKVYACEVTHQGLSSPVTKSFNRGEC |

target: T2, human FcγRIIA-R131 extracellular domain …; assay: ELISA: plate coated with the anti-human CD40 antibody, biotinylated human FcγRIIA-R131 extracellular domain, streptavidin-HRP, A650 [lower FcγRIIA-R131 panel]
Procedure: The ELISA plate was coated with 100 μL antibody at an appropriate concentration overnight, supernatant being discarded. The plate was blocked with 1% BSA in PBS for 2 hours, followed by washing with PBST (PBS with 0.05% Tween 20). Then, biotinylated FcγR extracellular domain protein (Sino Biologic Inc., Beijing China) at a concentration as appropriate was added and incubated at room temperature for 1 hour, supernatant being discarded, followed by PBST wash. Streptavidin-HRP (BD Biosciences) was added and incubated at room temperature for 1 hour for detection of biotin protein. After removal of supernatant, developing solution was added to react for 20-40 minutes, and absorbance was determined at 650 nm (A650).

| binding result | Binder |
| --- | --- |
| binds | Anti-hCD40-hIgG1(V11) (antibody, Human anti-human CD40 antibody, heavy chain constant region V11(H1)) heavy: not shown light: DIQMTQSPSSVSASVGDRVTITCRASQGIYSWLAWYQQKPGKAPNLLIYTASTLQSGVPSRFSGSGSGTDFTLTISSLQPEDFATYYCQQANIFPLTFGGGTKVEIKRTVAAPSVFIFPPSDEQLKSGTASVVCLLNNFYPREAKVQWKVDNALQSGNSQESVTEQDSKDSTYSLSSTLTLSKADYEKHKVYACEVTHQGLSSPVTKSFNRGEC |
| binds | Anti-hCD40-hIgG2-SELF (antibody, Human anti-human CD40 antibody, heavy chain constant region G2-SELF, i.e. JAC3; also called anti-human CD40 antibody comprising JAC3) heavy: not shown light: DIQMTQSPSSVSASVGDRVTITCRASQGIYSWLAWYQQKPGKAPNLLIYTASTLQSGVPSRFSGSGSGTDFTLTISSLQPEDFATYYCQQANIFPLTFGGGTKVEIKRTVAAPSVFIFPPSDEQLKSGTASVVCLLNNFYPREAKVQWKVDNALQSGNSQESVTEQDSKDSTYSLSSTLTLSKADYEKHKVYACEVTHQGLSSPVTKSFNRGEC |
| binds | Anti-hCD40-hIgG2-SE (antibody, Human anti-human CD40 antibody, heavy chain constant region G2-SE) heavy: not shown light: DIQMTQSPSSVSASVGDRVTITCRASQGIYSWLAWYQQKPGKAPNLLIYTASTLQSGVPSRFSGSGSGTDFTLTISSLQPEDFATYYCQQANIFPLTFGGGTKVEIKRTVAAPSVFIFPPSDEQLKSGTASVVCLLNNFYPREAKVQWKVDNALQSGNSQESVTEQDSKDSTYSLSSTLTLSKADYEKHKVYACEVTHQGLSSPVTKSFNRGEC |
| binds | Anti-hCD40-hIgG2-HDPG (antibody, Human anti-human CD40 antibody, heavy chain constant region G2-HDPG, i.e. JAC4; also called anti-human CD40 antibody comprising JAC4) heavy: not shown light: DIQMTQSPSSVSASVGDRVTITCRASQGIYSWLAWYQQKPGKAPNLLIYTASTLQSGVPSRFSGSGSGTDFTLTISSLQPEDFATYYCQQANIFPLTFGGGTKVEIKRTVAAPSVFIFPPSDEQLKSGTASVVCLLNNFYPREAKVQWKVDNALQSGNSQESVTEQDSKDSTYSLSSTLTLSKADYEKHKVYACEVTHQGLSSPVTKSFNRGEC |

target: T3, recombinant murine CD40 protein; assay: ELISA: plate coated with recombinant murine CD40, antibody in gradient dilutions, HRP-labelled goat anti-human IgG-Fc secondary antibody, A650
Procedure: For assay on anti-human CD40 antibodies, an ELISA plate was coated with recombinant human CD40 protein (Novoprotein Scientific Inc.) overnight at atmospheric temperature, blocked using 1% BSA at room temperature for 2 h, and then washed three times with PBST (0.05% Tween 20 in PBS). To each well was added […] gradient dilutions of the human agonistic CD40 antibody. The plate was incubated at room temperature for 1 h and washed four times with PBST. Then, 100 ng/ml biotinylated secondary antibody against human Igκ light chain was added, incubated at room temperature for 1 h and washed 4 times with PBST. SAV-HRP at an appropriate concentration was added, incubated at room temperature for 1 h. Then, chromogenic substrate was added to react for 5 minutes, and optical absorbance was determined at 650 nm.
For assay on anti-murine CD40 antibodies, the process was the same, expect that the plate was coated with recombinant murine CD40 protein (Novoprotein Scientific Inc.) and HRP-labeled goat anti-human IgG-Fc antibody was used as the secondary antibody.

| EC50 (read off the curve) [µg/mL] | Binder |
| --- | --- |
| ~0.1 | Anti-mCD40-hIgG1 (antibody, Chimeric anti-murine CD40 antibody, heavy chain constant region G1) heavy: not shown light: DTVLTQSPALAVSPGERVTISCRASDSVSTLMHWYQQKPGQQPKLLIYLASHLESGVPARFSGSGSGTDFTLTIDPVEADDTATYYCQQSWNDPWTFGGGTKLELKRTVAAPSVFIFPPSDEQLKSGTASVVCLLNNFYPREAKVQWKVDNALQSGNSQESVTEQDSKDSTYSLSSTLTLSKADYEKHKVYACEVTHQGLSSPVTKSFNRGEC |
